According to the supplement of paper PMC10724198:
± gives the standard deviation of the averaged measurements.

Assays:
Saccharomyces cerevisiae [1] = assay: protein stability index of tFT-peptide fusion (C-terminal peptide) (PSI (0-1 scale)); higher = more stable (slower turnover)
Method: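 MPS profiling in S. cerevisiae of the tFT-X12 degron library: putative degron peptides plus stable controls, 12 aa, fused to the C-terminus of a sfGFP-mCherry timer. Cells are FACS-sorted into 8 mCherry/sfGFP bins and deep-sequenced. PSI runs from 0 (unstable) to 1 (stable). Backgrounds are wild type, das1Δ and doa10Δ at 30 °C, and wild type, das1Δ, cdc34-1 and cdc53-1 at 37 °C; 2-3 technical replicates each.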

Saccharomyces cerevisiae [2] = assay: as above; details: genetic background: wild type; temperature: 30 C
[3] = genetic background: cdc34-1, temperature: 37 C
[4] = genetic background: cdc53-1, temperature: 37 C
[5] = genetic background: das1 deletion, temperature: 30 C
[6] = genetic background: das1 deletion, temperature: 37 C
[7] = genetic background: doa10 deletion, temperature: 30 C
[8] = genetic background: wild type, temperature: 30 C
[9] = genetic background: wild type, temperature: 37 C
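Further: PSI is a weighted mean of sequencing reads over stability bins, variants kept only with over 10 reads, mCherry proximal and sfGFP distal, peptide attached via GGGS linker.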

Sequence	protein stability index (Saccharomyces cerevisiae [1]; [3])	protein stability index (Saccharomyces cerevisiae [1]; [4])	protein stability index (Saccharomyces cerevisiae [1]; [5])	protein stability index (Saccharomyces cerevisiae [1]; [6])	protein stability index (Saccharomyces cerevisiae [1]; [7])	protein stability index (Saccharomyces cerevisiae [1]; [8])	protein stability index (Saccharomyces cerevisiae [1]; [9])	protein stability index (Saccharomyces cerevisiae [2])
FCASCLVCFIYL	0.492 ± 0.0074	0.501 ± 0.0053	0.426 ± 0.024	0.5207 ± 0.0051	0.444 ± 0.026	0.421 ± 0.031	0.517 ± 0.019	0.462 ± 0.023
FCCWCVCFGYSG	0.575 ± 0.093	0.604 ± 0.013	0.395 ± 0.019	0.582 ± 0.0089	0.372 ± 0.02	0.394 ± 0.025	0.549 ± 0.007	0.443 ± 0.0049
FCFCLVLRVFLG	0.118 ± 0.0026	0.171 ± 0.011	0.154 ± 0.03	0.272 ± 0.0093	0.172 ± 0.011	0.162 ± 0.024	0.222 ± 0.014	0.253 ± 0.034
FCFFSMGFVLAL	0.3489 ± 0.00089	0.365 ± 0.0065	0.334 ± 0.0061	0.45 ± 0.017	0.289 ± 0.0053	0.314 ± 0.017	0.422 ± 0.026	0.453 ± 0.072
FCIIVFYIFVGI	0.451 ± 0.061	0.506 ± 0.078	0.342 ± 0.027	0.48 ± 0.077	0.323 ± 0.024	0.333 ± 0.022	0.486 ± 0.042	0.382 ± 0.041
FCLMLWGAVLFL	0.216 ± 0.014	0.29 ± 0.0077	0.235 ± 0.019	0.364 ± 0.047	0.226 ± 0.015	0.223 ± 0.03	0.33 ± 0.0042	0.314 ± 0.025
FCVLLFFFPLII	0.272 ± 0.012	0.293 ± 0.04	0.271 ± 0.029	0.402 ± 0.0046	0.376 ± 0.037	0.261 ± 0.015	0.374 ± 0.012	0.363 ± 0.024
FEVLINIWFLSA	0.272 ± 0.028	0.388 ± 0.026	0.3 ± 0.042	0.422 ± 0.0066	0.185 ± 0.011	0.19 ± 0.018	0.324 ± 0.013	0.262 ± 0.019
FFACSLLFVLVF	0.0985 ± 0.0033	0.175 ± 0.022	0.177 ± 0.022	0.27 ± 0.0076	0.1392 ± 0.0012	0.17 ± 0.027	0.226 ± 0.014	0.228 ± 0.0075
FFAIFSLLLSFT	0.449 ± 0.015	0.482 ± 0.0083	0.401 ± 0.028	0.532 ± 0.012	0.399 ± 0.007	0.4 ± 0.014	0.527 ± 0.0072	0.459 ± 0.026
FFALYGHILGLF	0.702 ± 0.02	0.7821 ± 0.0041	0.611 ± 0.023	0.7525 ± 0.0025	0.472 ± 0.028	0.491 ± 0.016	0.685 ± 0.052	0.4957 ± 0.0022
FFFPFLCIAVSL	0.464 ± 0.036	0.474 ± 0.016	0.418 ± 0.034	0.472 ± 0.0053	0.4007 ± 0.0018	0.413 ± 0.018	0.436 ± 0.011	0.458 ± 0.022
FFICCPLLVVCS	0.0277 ± 0.012	0.0453 ± 0.027	0.091 ± 0.022	0.0716 ± 0.018	0.064 ± 0.016	0.0665 ± 0.035	0.0677 ± 0.021	0.109 ± 0.041
FFILVFFSLLST	0.2927 ± 0.0014	0.445 ± 0.018	0.283 ± 0.049	0.441 ± 0.032	0.244 ± 0.041	0.274 ± 0.033	0.4056 ± 0.0022	0.404 ± 0.032
FFLFILYFGSCF	0.358 ± 0.025	0.422 ± 0.0051	0.349 ± 0.034	0.481 ± 0.0073	0.362 ± 0.017	0.329 ± 0.012	0.448 ± 0.017	0.399 ± 0.029
FFLFLVCLFFFS	0.405 ± 0.016	0.36 ± 0.1	0.358 ± 0.032	0.487 ± 0.011	0.36 ± 0.049	0.355 ± 0.031	0.4333 ± 0.0037	0.37 ± 0.026
FFLLSVVLKYSV	0.0374 ± 0.0046	0.08659 ± 0.00036	0.103 ± 0.029	0.174 ± 0.0019	0.093 ± 0.021	0.0922 ± 0.021	0.14 ± 0.0075	0.19 ± 0.015
FFRFNCVFWLFL	0.509 ± 0.0099	0.551 ± 0.033	0.443 ± 0.021	0.604 ± 0.034	0.211 ± 0.0028	0.233 ± 0.016	0.428 ± 0.053	0.3129 ± 0.0019
FFRLFAPLLVVL	0.113 ± 0.02	0.0677 ± 0.015	0.188 ± 0.028	0.23 ± 0.033	0.2621 ± 0.0019	0.178 ± 0.019	0.1836 ± 0.0014	0.212 ± 0.01
